# Measured values published in the Immune Epitope Database (IEDB).
# Columns and labels:
# HLA-A*02:01 [1] = test: IEDB peptide-MHC binding, purified MHC/competitive/fluorescence; ≥ and ≤ were set here for values at or beyond the usual limits of such assays; settings: source organism: Zaire ebolavirus
# HLA-A*24:02 = test: as above
# HLA-B*44:03 = test: IEDB peptide-MHC binding, purified MHC/competitive/radioactivity; filed as Kd, often an IC50 or EC50 that approximates it; ≥ and ≤ were set here for values at or beyond the usual limits of such assays
# HLA-B*44:02 = test: as above
# HLA-B*40:01 [2] = test: as above
# HLA-B*35:01 = test: as above
# HLA-B*53:01 = test: as above
# HLA-B*07:02 [3] = test: as above
# HLA-B*51:01 [4] = test: as above
# HLA-B*15:03 = test: as above
# HLA-A*24:03 = test: IEDB peptide-MHC binding, purified MHC/direct/fluorescence; filed as Kd, often an IC50 or EC50 that approximates it; ≥ and ≤ were set here for values at or beyond the usual limits of such assays
# HLA-B*08:01 [5] = test: IEDB peptide-MHC binding, purified MHC/competitive/radioactivity; filed as Kd, often an IC50 or EC50 that approximates it; ≥ and ≤ were set here for values at or beyond the usual limits of such assays
# HLA-A*02:01 [6] = test: IEDB peptide-MHC binding, purified MHC/competitive/fluorescence; filed as Kd, often an IC50 or EC50 that approximates it; ≥ and ≤ were set here for values at or beyond the usual limits of such assays; settings: source organism: Salmonella enterica subsp. enterica serovar Typhi
# HLA-A*26:01 [7] = test: as above; settings: source organism: Salmonella enterica subsp. enterica serovar Typhi
# HLA-A*02:03 = test: IEDB peptide-MHC binding, purified MHC/competitive/radioactivity; filed as Kd, often an IC50 or EC50 that approximates it; ≥ and ≤ were set here for values at or beyond the usual limits of such assays; settings: source organism: Dengue virus 2 Jamaica/1409/1983
# HLA-B*15:01 [8] = test: as above
# HLA-B*15:01 [9] = test: IEDB peptide-MHC binding, purified MHC/competitive/fluorescence; filed as Kd, often an IC50 or EC50 that approximates it; ≥ and ≤ were set here for values at or beyond the usual limits of such assays
# HLA-A*32:01 = test: IEDB peptide-MHC binding, purified MHC/competitive/radioactivity; filed as Kd, often an IC50 or EC50 that approximates it; ≥ and ≤ were set here for values at or beyond the usual limits of such assays; settings: source organism: Vaccinia virus WR
# HLA-B*51:01 [10] = test: IEDB peptide-MHC binding, purified MHC/competitive/fluorescence; filed as Kd, often an IC50 or EC50 that approximates it; ≥ and ≤ were set here for values at or beyond the usual limits of such assays
# HLA-A*11:01 = test: IEDB peptide-MHC binding, purified MHC/direct/fluorescence; filed as Kd, often an IC50 or EC50 that approximates it; ≥ and ≤ were set here for values at or beyond the usual limits of such assays; settings: source organism: Yersinia pestis
# HLA-A*02:01 [11] = test: as above; settings: source organism: Yersinia pestis
# HLA-B*58:01 = test: as above; settings: source organism: Yersinia pestis
# HLA-B*27:05 = test: as above; settings: source organism: Yersinia pestis
# HLA-B*08:01 [12] = test: as above; settings: source organism: Yersinia pestis
# HLA-B*07:02 [13] = test: as above; settings: source organism: Yersinia pestis
# HLA-A*69:01 = test: as above; settings: source organism: Yersinia pestis
# HLA-A*01:01 [14] = test: as above; settings: source organism: Yersinia pestis
# HLA-B*40:01 [15] = test: as above; settings: source organism: Yersinia pestis
# HLA-A*26:01 [16] = test: as above; settings: source organism: Yersinia pestis
# HLA-A*31:01 = test: as above; settings: source organism: Yersinia pestis
# HLA-A*03:01 = test: as above; settings: source organism: Yersinia pestis
# HLA-B*15:01 [17] = test: as above; settings: source organism: Yersinia pestis
# HLA-A*01:01 [18] = test: IEDB peptide-MHC binding, purified MHC/competitive/radioactivity; filed as Kd, often an IC50 or EC50 that approximates it; ≥ and ≤ were set here for values at or beyond the usual limits of such assays
# HLA-A*30:02 = test: as above; settings: source organism: Dengue virus 4 Philippines/H241/1956
# [19] = source organism: Zaire ebolavirus
# [20] = source organism: Dengue virus 4 Dominica/814669/1981
# [21] = source organism: Dengue virus 2 Jamaica/1409/1983
# [22] = source organism: Sudan ebolavirus
# [23] = source organism: Dengue virus 1 Brazil/97-11/1997
# [24] = source organism: Vaccinia virus WR
# [25] = source organism: Dengue virus 4 Philippines/H241/1956
# [26] = source organism: Yersinia pestis
# [27] = source organism: Vaccinia virus Copenhagen
# [28] = source organism: Dengue virus 3 Martinique/1243/1999
# [29] = source organism: Dengue virus 3 Singapore/8120/1995
sequence,measurement,setting,value
AENTNTSKS,IC50,HLA-A*02:01 [1],≥ 187000 nM
same,IC50,HLA-A*24:02; [19],≥ 534000 nM
AERIGEPDY,Kd,HLA-B*44:03; [20],797 nM
same,Kd,HLA-B*44:02; [20],203 nM
AETQHGTIV,Kd,HLA-B*44:03; [21],225 nM
same,Kd,HLA-B*40:01 [2]; [21],15.1 nM
AGIAWIPYF,IC50,HLA-A*24:02; [22],2640 nM
DPASIAARGY,Kd,HLA-B*35:01; [21],5620 nM
EPGQLKLNW,Kd,HLA-B*53:01; [21],33.1 nM
EPHWIAASI,Kd,HLA-B*07:02 [3]; [23],267 nM
same,Kd,HLA-B*51:01 [4]; [23],172 nM
same,Kd,HLA-B*53:01; [23],333 nM
FARDNQISF,Kd,HLA-B*15:03; [24],0.195 nM
FFPMVTDAW,Kd,HLA-A*24:03; source organism: Vibrio parahaemolyticus,≤ 1 nM
FLFLNINHY,Kd,HLA-B*15:03; [24],6.46 nM
FLVIAINAM,Kd,HLA-B*15:03; [24],440 nM
FPTSRTTWSI,Kd,HLA-B*35:01; [25],327 nM
same,Kd,HLA-B*07:02 [3]; [25],55.5 nM
same,Kd,HLA-B*51:01 [4]; [25],184 nM
same,Kd,HLA-B*53:01; [25],16.4 nM
GPLKLFMAL,Kd,HLA-B*08:01 [5]; [21],19.3 nM
same,Kd,HLA-B*07:02 [3]; [21],2.35 nM
same,Kd,HLA-B*51:01 [4]; [21],≥ 77400 nM
same,Kd,HLA-B*53:01; [21],1010 nM
GPLRMVLAF,Kd,HLA-B*35:01; [25],1230 nM
same,Kd,HLA-B*07:02 [3]; [25],5.58 nM
same,Kd,HLA-B*53:01; [25],122 nM
HPGFTVIALF,Kd,HLA-B*35:01; [23],101 nM
same,Kd,HLA-B*53:01; [23],87.9 nM
HVAAFSSLI,Kd,HLA-A*02:01 [6],61.3 nM
same,Kd,HLA-A*26:01 [7],57.5 nM
IETLMLLALI,Kd,HLA-B*44:03; [23],1050 nM
same,Kd,HLA-B*40:01 [2]; [23],206 nM
IFVIDNVHTW,Kd,HLA-B*53:01; [25],500 nM
IKYMIGNFM,Kd,HLA-B*15:03; [24],2.15 nM
ILAAVSVSPL,Kd,HLA-A*02:03,13 nM
same,Kd,HLA-B*15:01 [8]; [21],28.9 nM
IMSLFSTSA,Kd,HLA-B*15:03; [24],7.67 nM
IPMTGPLVA,Kd,HLA-B*07:02 [3]; [21],50.7 nM
ISKNAFSCM,Kd,HLA-B*15:01 [8]; [24],78.1 nM
IVIGVGDSAL,Kd,HLA-B*15:01 [8]; [25],27.8 nM
KEYTYPDSL,IC50,HLA-A*24:02; [19],≥ 184000 nM
KKNNRVLCF,Kd,HLA-B*15:03; [24],1.59 nM
LENDEDCAHW,Kd,HLA-B*44:03; [21],103 nM
same,Kd,HLA-B*44:02; [21],103 nM
LEVNNPTPF,Kd,HLA-B*15:01 [9]; [26],98 nM
LLVQRVTSV,Kd,HLA-B*15:03; [27],285 nM
LLYMFPNLF,Kd,HLA-B*15:03; [24],0.109 nM
same,Kd,HLA-A*32:01,89.7 nM
LMLVTPSMAM,Kd,HLA-B*15:01 [8]; [23],7.08 nM
LPDYGELTL,Kd,HLA-B*35:01; [25],100 nM
same,Kd,HLA-B*07:02 [3]; [25],67.8 nM
same,Kd,HLA-B*51:01 [4]; [25],1230 nM
same,Kd,HLA-B*53:01; [25],77.1 nM
LPPEKCDTLL,Kd,HLA-B*35:01; [28],5980 nM
same,Kd,HLA-B*08:01 [5]; [28],707 nM
LPVWLSYKV,Kd,HLA-B*51:01 [4]; [23],418 nM
same,Kd,HLA-B*53:01; [23],164 nM
LSIPATLFVW,Kd,HLA-B*53:01; source organism: Dengue virus 1 Singapore/S275/1990,92.8 nM
LSYGPAFIV,Kd,HLA-B*51:01 [10]; source organism: Entamoeba histolytica HM-1:IMSS,≥ 20000 nM
LTDEDKQNQ,Kd,HLA-A*11:01,≥ 20000 nM
same,Kd,HLA-A*02:01 [11],≥ 20000 nM
same,Kd,HLA-A*24:03; [26],≥ 20000 nM
same,Kd,HLA-B*58:01,≥ 20000 nM
same,Kd,HLA-B*27:05,≥ 20000 nM
same,Kd,HLA-B*08:01 [12],≥ 20000 nM
same,Kd,HLA-B*07:02 [13],≥ 20000 nM
same,Kd,HLA-A*69:01,≥ 20000 nM
same,Kd,HLA-A*01:01 [14],≥ 20000 nM
same,Kd,HLA-B*40:01 [15],≥ 20000 nM
same,Kd,HLA-A*26:01 [16],≥ 20000 nM
same,Kd,HLA-A*31:01,≥ 20000 nM
same,Kd,HLA-A*03:01,≥ 20000 nM
same,Kd,HLA-B*15:01 [17],≥ 20000 nM
LWFNYLFGG,IC50,HLA-A*24:02; source organism: Variola virus,57800 nM
MEGVFHTMW,Kd,HLA-B*44:03; [25],2.58 nM
same,Kd,HLA-B*44:02; [25],17.4 nM
MQYVPAWIV,Kd,HLA-B*51:01 [10]; source organism: Bacillus cereus 95/8201,≥ 20000 nM
NATDTWVTY,Kd,HLA-B*35:01; [23],20.9 nM
same,Kd,HLA-A*01:01 [18]; [23],144 nM
NELNYVLWE,Kd,HLA-B*44:03; [25],159 nM
PKRSVMLIG,IC50,HLA-A*24:02; [24],38400 nM
PPVNDLKYSW,Kd,HLA-B*53:01; [25],96.8 nM
PSATKRWGF,IC50,HLA-A*24:02; [22],10200 nM
PWTKISETK,IC50,HLA-A*24:02; [24],≥ 169000 nM
QESADSFLL,IC50,HLA-A*24:02; [19],≥ 138000 nM
QKIWMAPSL,IC50,HLA-A*02:01 [1],14500 nM
same,IC50,HLA-A*24:02; [19],≥ 92400 nM
QPFLALGFFL,Kd,HLA-B*35:01; [28],200 nM
same,Kd,HLA-B*07:02 [3]; [28],577 nM
same,Kd,HLA-B*51:01 [4]; [28],≥ 69600 nM
QPMELKYSW,Kd,HLA-B*53:01; [28],7.76 nM
RAKGSRAIWY,Kd,HLA-B*15:01 [8]; [25],36.1 nM
same,Kd,HLA-A*30:02,77 nM
RFLVINRLG,IC50,HLA-A*24:02; [24],16400 nM
RPMPGTRKVM,Kd,HLA-B*35:01; [29],8170 nM
same,Kd,HLA-B*07:02 [3]; [29],1.13 nM
RPTPTGTVM,Kd,HLA-B*35:01; [28],1430 nM
same,Kd,HLA-B*07:02 [3]; [28],1.98 nM
RSRWSRKMLM,Kd,HLA-B*07:02 [3]; [23],154 nM
RYGWSGAVF,Kd,HLA-A*24:03; source organism: Shigella sonnei Ss046,≤ 1 nM
SDTRSVNSF,Kd,HLA-B*15:03; [27],92.7 nM
SECPNERRAW,Kd,HLA-B*44:03; [25],56.5 nM
same,Kd,HLA-B*44:02; [25],74.7 nM
SEFQIYKKS,Kd,HLA-B*44:03; [21],825 nM
SIIVLFQRF,Kd,HLA-B*08:01 [5]; [24],8550 nM
same,Kd,HLA-B*15:01 [8]; [24],1.09 nM
SKSRRLNLF,Kd,HLA-B*15:03; [24],2.36 nM
SLIEVKTCLW,Kd,HLA-B*44:03; [25],2330 nM
SPGKFWNTTI,Kd,HLA-B*07:02 [3]; [23],5.6 nM
SPGTSGSPII,Kd,HLA-B*07:02 [3]; source organism: Dengue virus 2 16681-PDK53,132 nM
SPGYVLGVF,Kd,HLA-B*07:02 [3]; [20],8.71 nM
TEEIAVQNW,Kd,HLA-B*44:03; [21],36.8 nM
same,Kd,HLA-B*44:02; [21],15.4 nM
TEIASLPTYL,Kd,HLA-B*44:03; [25],222 nM
same,Kd,HLA-B*40:01 [2]; [25],15 nM
same,Kd,HLA-B*44:02; [25],34.7 nM
TQGYFPDWQNY,Kd,HLA-B*15:01 [9]; source organism: Human immunodeficiency virus 1,84.6 nM
TTGKLIWKV,IC50,HLA-A*02:01 [1],1240 nM
same,IC50,HLA-A*24:02; [19],62700 nM
TVIDLDPIPY,Kd,HLA-A*01:01 [18]; [21],1540 nM
same,Kd,HLA-B*15:01 [8]; [21],1.83 nM
WKVLSIMAF,Kd,HLA-B*15:03; [27],9.29 nM
YVQLESRFT,IC50,HLA-A*02:01 [1],39300 nM
same,IC50,HLA-A*24:02; [19],≥ 203000 nM
